# Assay results as given in US20040053370A1 (Eli Lilly, published 2004).
# Substitutions are numbered along the chain they refer to. Ends that are not written are not given here.
# B1: Val^8-Lys^22-GLP-1(7-36)NH2 (peptide)
# peptide: HVEGTFTSDVSSYLEKQAAKEFIAWLVKGR-NH2
# B2: Val^8-Leu^16-Glu^26-GLP-1(7-37)OH (peptide)
# peptide: HVEGTFTSDLSSYLEGQAAEEFIAWLVKGRG
# B3: Gly^8-His^11-GLP-1(7-37)OH (peptide)
# peptide: HGEGHFTSDVSSYLEGQAAKEFIAWLVKGRG
# B4: Val^8-Asp^22-GLP-1(7-37)OH (peptide)
# peptide: B3 peptide with G2V, H5T, G16D
# B5: Val^8-Lys^23-GLP-1(7-37)OH (peptide)
# peptide: B3 peptide with G2V, H5T, Q17K
# B6: Val^8-Glu^35-GLP-1(7-37)OH (peptide)
# peptide: B3 peptide with G2V, H5T, G29E
# B7: Val^8-Glu^34-GLP-1(7-37)OH (peptide)
# peptide: B3 peptide with G2V, H5T, K28E
# B8: Val^8-His^27-GLP-1(7-37)OH (peptide)
# peptide: B3 peptide with G2V, H5T, E21H
# B9: Val^8-Asp^30-GLP-1(7-37)OH (peptide)
# peptide: B3 peptide with G2V, H5T, A24D
# B10: Val^8-His^35-GLP-1(7-37)OH (peptide)
# peptide: B3 peptide with G2V, H5T, G29H
# B11: Gly^8-Glu^30-GLP-1(7-37)OH (peptide)
# peptide: B3 peptide with H5T, A24E
# B12: Val^8-His^30-GLP-1(7-37)OH (peptide)
# peptide: B3 peptide with G2V, H5T, A24H
# B13: Val^8-Glu^16-GLP-1(7-37)OH (peptide)
# peptide: B2 peptide with L10E, E20K
# B14: Val^8-His^37-GLP-1(7-37)OH (peptide)
# peptide: B3 peptide with G2V, H5T, G31H
# B15: Val^8-Ala^16-GLP-1(7-37)OH (peptide)
# peptide: B2 peptide with L10A, E20K
# B16: Val^8-Glu^22-GLP-1(7-37)OH (peptide)
# peptide: B3 peptide with G2V, H5T, G16E
# B17: Val^8-Lys^11-GLP-1(7-37)OH (peptide)
# peptide: B3 peptide with G2V, H5K
# B18: Val^8-Lys^22-GLP-1(7-37)OH (peptide)
# peptide: B3 peptide with G2V, H5T, G16K
# B19: Val^8-His^36-GLP-1(7-37)OH (peptide)
# peptide: B3 peptide with G2V, H5T, R30H
# B20: Val^8-His^22-GLP-1(7-37)OH (peptide)
# peptide: B3 peptide with G2V, H5T, G16H
# B21: Val^8-Pro^22-GLP-1(7-37)OH (peptide)
# peptide: B3 peptide with G2V, H5T, G16P
# B22: Val^8-Glu^36-GLP-1(7-37)OH (peptide)
# peptide: B3 peptide with G2V, H5T, R30E
# B23: Val^8-Ala^33-GLP-1(7-37)OH (peptide)
# peptide: B3 peptide with G2V, H5T, V27A
# B24: Val^8-Gly^33-GLP-1(7-37)OH (peptide)
# peptide: B3 peptide with G2V, H5T, V27G
# B25: Val^8-Ser^30-GLP-1(7-37)OH (peptide)
# peptide: B3 peptide with G2V, H5T, A24S
# B26: Val^8-Lys^20-GLP-1(7-37)OH (peptide)
# peptide: B3 peptide with G2V, H5T, L14K
# B27: Val^8-His^24-GLP-1(7-37)OH (peptide)
# peptide: B3 peptide with G2V, H5T, A18H
# B28: Val^8-Ser^22-GLP-1(7-37)OH (peptide)
# peptide: B3 peptide with G2V, H5T, G16S
# B29: Val^8-Ala^22-GLP-1(7-37)OH (peptide)
# peptide: B3 peptide with G2V, H5T, G16A
# B30: Val^8-Glu^33-GLP-1(7-37)OH (peptide)
# peptide: B3 peptide with G2V, H5T, V27E
# B31: Val^8-Glu^26-GLP-1(7-37)OH (peptide)
# peptide: B2 peptide with L10V
# B32: Gln^22-GLP-1(7-37)OH (peptide)
# peptide: B3 peptide with G2A, H5T, G16Q
# B33: Val^8-Pro^35-GLP-1(7-37)OH (peptide)
# peptide: B3 peptide with G2V, H5T, G29P
# B34: Val^8-Glu^30-GLP-1(7-37)OH (peptide)
# peptide: B3 peptide with G2V, H5T, A24E
# B35: Val^8-Lys^24-GLP-1(7-37)OH (peptide)
# peptide: B3 peptide with G2V, H5T, A18K
# B36: Val^8-His^26-GLP-1(7-37)OH (peptide)
# peptide: B2 peptide with L10V, E20H
# B37: Val^8-Ala^11-GLP-1(7-37)OH (peptide)
# peptide: B3 peptide with G2V, H5A
# B38: Val^8-Lys^33-Val^34-GLP-1(7-37)OH (peptide)
# peptide: HVEGTFTSDVSSYLEGQAAKEFIAWLKVGRG
# B39: Val^8-Gly^34-Lys^35-GLP-1(7-37)OH (peptide)
# peptide: B38 peptide with K27V, V28G, G29K
# B40: Val^8-Glu^22-GLP-1(7-36)NH2 (peptide)
# peptide: HVEGTFTSDVSSYLEEQAAKEFIAWLVKGR-NH2
# B41: Val^8-Lys^22-Glu^30-GLP-1(7-37)OH (peptide)
# peptide: HVEGTFTSDVSSYLEKQAAKEFIEWLVKGRG
# B42: Val^8-Lys^22-Glu^23-GLP-1(7-37)OH (peptide)
# peptide: B41 peptide with Q17E, E24A
# B43: Val^8-Glu^22-Lys^23-GLP-1(7-37)OH (peptide)
# peptide: B41 peptide with K16E, Q17K, E24A
# Target: GLP-1 receptor
# Test: cell-based or functional assay
binder,measurement,value
B1,GLP-1 Receptor Activation,0.53 fold of GLP-1(7-37)OH
B2,GLP-1 Receptor Activation,0.23 fold of GLP-1(7-37)OH
B3,GLP-1 Receptor Activation,0.282 fold of GLP-1(7-37)OH
B4,GLP-1 Receptor Activation,0.4 fold of GLP-1(7-37)OH
B5,GLP-1 Receptor Activation,0.18 fold of GLP-1(7-37)OH
B6,GLP-1 Receptor Activation,0.15 fold of GLP-1(7-37)OH
B7,GLP-1 Receptor Activation,0.17 fold of GLP-1(7-37)OH
B8,GLP-1 Receptor Activation,0.37 fold of GLP-1(7-37)OH
B9,GLP-1 Receptor Activation,0.15 fold of GLP-1(7-37)OH
B10,GLP-1 Receptor Activation,0.41 fold of GLP-1(7-37)OH
B11,GLP-1 Receptor Activation,0.29 fold of GLP-1(7-37)OH
B12,GLP-1 Receptor Activation,0.19 fold of GLP-1(7-37)OH
B13,GLP-1 Receptor Activation,0.047 fold of GLP-1(7-37)OH
B14,GLP-1 Receptor Activation,0.33 fold of GLP-1(7-37)OH
B15,GLP-1 Receptor Activation,0.112 fold of GLP-1(7-37)OH
B16,GLP-1 Receptor Activation,1.29 fold of GLP-1(7-37)OH
B17,GLP-1 Receptor Activation,0.001 fold of GLP-1(7-37)OH
B18,GLP-1 Receptor Activation,0.58 fold of GLP-1(7-37)OH
B19,GLP-1 Receptor Activation,0.22 fold of GLP-1(7-37)OH
B20,GLP-1 Receptor Activation,0.14 fold of GLP-1(7-37)OH
B21,GLP-1 Receptor Activation,0.01 fold of GLP-1(7-37)OH
B22,GLP-1 Receptor Activation,0.11 fold of GLP-1(7-37)OH
B23,GLP-1 Receptor Activation,0.1 fold of GLP-1(7-37)OH
B24,GLP-1 Receptor Activation,0.01 fold of GLP-1(7-37)OH
B25,GLP-1 Receptor Activation,0.19 fold of GLP-1(7-37)OH
B26,GLP-1 Receptor Activation,0.33 fold of GLP-1(7-37)OH
B27,GLP-1 Receptor Activation,0.007 fold of GLP-1(7-37)OH
B28,GLP-1 Receptor Activation,0.5 fold of GLP-1(7-37)OH
B29,GLP-1 Receptor Activation,0.56 fold of GLP-1(7-37)OH
B30,GLP-1 Receptor Activation,0.039 fold of GLP-1(7-37)OH
B31,GLP-1 Receptor Activation,1.5 fold of GLP-1(7-37)OH
B32,GLP-1 Receptor Activation,0.42 fold of GLP-1(7-37)OH
B33,GLP-1 Receptor Activation,0.094 fold of GLP-1(7-37)OH
B34,GLP-1 Receptor Activation,0.29 fold of GLP-1(7-37)OH
B35,GLP-1 Receptor Activation,0.02 fold of GLP-1(7-37)OH
B36,GLP-1 Receptor Activation,1.6 fold of GLP-1(7-37)OH
B37,GLP-1 Receptor Activation,0.021 fold of GLP-1(7-37)OH
B38,GLP-1 Receptor Activation,0.08 fold of GLP-1(7-37)OH
B39,GLP-1 Receptor Activation,0.34 fold of GLP-1(7-37)OH
B40,GLP-1 Receptor Activation,1 fold of GLP-1(7-37)OH
B41,GLP-1 Receptor Activation,0.37 fold of GLP-1(7-37)OH
B42,GLP-1 Receptor Activation,0.35 fold of GLP-1(7-37)OH
B43,GLP-1 Receptor Activation,1.43 fold of GLP-1(7-37)OH
